Measured values reported in the DeepSol protein solubility set.

Assay: soluble on expression in E. coli; label from the status in PepcDB or PDB records

**Q.** Which “soluble on expression in E. coli” value does the source give for “MKNLPIGGVWKGKVKLHSNSPAQDYFANITLNTLDPNHIDVFFPEFAHATPRVQLDLHPTGSVNGSNYAQDLTMLDMCLYDGFNGNAISYEIMLKDEGRPAAGRRDGYFSIYRQGGTTTDEGERIDYRVKMYNPETGGQIDVRNNENMVWNSINLKRVRPVVLPGIRYAVMCVPTPLTLAVDKFSVMDKQAGYYMGKLSVIFTPSLPTIN” here?
**A.** not soluble

**Q.** With “MAHHHHHHMNIFKYYNIYLPLSVLGFVHIEVKSNNDVLNNSLSSISFNNYIFGRILSTNESADVVVEKPMEEKLNNTNENIDETHEESDPSNSTEETVKKCISNILDMTCDSRGHALILANNILRSQNVNEEVIILNEHDLLSQFLNGDVSNIFSDNKSIFKDLLDKDICSTYEVNFDQNSKCTLLTNKNDLQISEDILLLGNESEETNKLLDLWKRVMKNEESKLYLLKRNLYQQHLKLRNRSRLSHDKLNNILNECNVLVKKYNNNYDKTINNIFKEWSTVTPHNIFEFKLFIKACRLTWRKSIKNLHAEYTELLKRSFN” as the sequence, how does the “soluble on expression in E. coli” value read?
**A.** not soluble

**Q.** With “IIGGQKAKMGNFPWQVFTNIHGRGGGALLGDRWILTAAHTLYPKEHEAQSNASLDVFLGHTNVEELMKLGNHPIRRVSVHPDYRQDESYNFEGDIALLELENSVTLGPNLLPICLPDNDTFYDLGLMGYVSGFGVMEEKIAHDLRFVRLPVANPQACENWLRGKNRMDVFSQNMFCAGHPSLKQDACQGDSGGVFAVRDPNTDRWVATGIVSWGIGCSRGYGFYTKVLNYVDWIKKEMEEED” as the sequence, how does the “soluble on expression in E. coli” value read?
**A.** soluble

**Q.** Which “soluble on expression in E. coli” value does the source give for “MSVSITFTDAAKRALASIVAQSERQLKLAFDTDGCGCLVDGVPALWLVDKADEDDVVVETNFMPVLVERSRLIFFDEAMTIDVKPGTTVFQLKSPGQTLNGHMPLVEVKSGHER” here?
**A.** not soluble

**Q.** With “MGSDKIHHHHHHMFEVFNYEDIICARGNREMPWKPSFQMNVYYYLIDGLLIDSGPYSLAKEAIEFFNAHIIEQVFLSHIHEDHAGMAYWLQEKMQIPIYLHEGSLEEARREPELAKYRLGIWGRRKAFNAEPINDTIKTGSYVFDVIDSPGHCPYHKVLHEKTKGWLFSGDLLNNLKPKSVMFDENTNDTILSIRKVLDLDFTTVFCAHTGIRKNAKNLFLKKLNYLLELQKDTQVLRNRGFSNTEIVEQLFPGPDPISSLSGGEFSSYYLVSTL” as the sequence, how does the “soluble on expression in E. coli” value read?
**A.** not soluble

**Q.** For “MQYFDVARILTTHGLHGEVKVNVITDFPEDRFAEGMQLELKDDIDRVLTIKKSRPFKQFWLLQFDEITDIDEAEKLRGKILVISEKDRGELPDGVYYYKDIFDCGVIDNETGKRLGKITDIQSPGANDIWLVHEDNGKEYWIPNIADVVKKIDIADKKVYVELMEGLRDEDLEHHHHHH”, which “soluble on expression in E. coli” value is on record?
**A.** soluble

**Q.** For “MSLRETLKTIAETLNVTHTTVSNVFNRPEKVSPELREKILAYAESINYHGPAGAGRFLRTGKCGTLGVIFNDNLSYVFSDRHDIALMRGIAEECEKNGINIALMPLKTNNALKKRMMGALVDGYILNATYNNDEVVQAALTSGLPVITTDIKLQNFTCVSIDDGAAMQAICHHLLAAGHKKFGIVSFPVKRLPGELTSLAEFSTDYDNGVAFGRISACITALSDAGIDLHTSYVAEQPHSETGGEKAAKALLAKEPGISAIICLSDRFAFGVYQFCQDHNIPVPGQIAITGFDDIDIQDPPVGLTTIRQPTVLKGREAARALISGQLDNDISLDFELVVRDSAEGHHHHHH”, which “soluble on expression in E. coli” value is on record?
**A.** soluble

**Q.** For “GMSTPSPALFFNTVNAYQRSAAIKAAVELNVFTAISQGIESSQSLAQKCQTSERGMRMLCDYLVIIGFMTKQAEGYRLTSDSAMFLDRQSKFYVGDAIEFLLSPMITNGFNDLTAAVLKGGTAISSEGTLSPEHPVWVQFAKAMSPMMANPAQLIAQLVNENKIEPLKVLDISASHGLFGIAVAQHNPNAEIFGVDWASVLEVAKENARIQGVASRYHTIAGSAFEVDYGNDYDLVLLPNFLHHFDVATCEQLLRKIKTALAVEGKVIVFDFIPNSDRITPPDAAAFSLVMLATTPNGDAYTFAEYESMFSNAGFSHSQLHSLPTTQQQVIVAYK”, which “soluble on expression in E. coli” value is on record?
**A.** soluble

**Q.** Which “soluble on expression in E. coli” value does the source give for “MGHHHHHHSHMLNSTGELEFSNEEDPEIISQLTSLPLSGGKSSAGVPEKTGYPDSVYVMAANIFQGIRIEKSAQKVLIKYGNEPLRSLSESEDQSFQRLSYELAFSALKYQDILETILIDSCIFPSTTTPDHLSSLIIVMLYDFQDRKFQTRVLSDNEEPISEVQEVENLLNSFKIKLAAALARCRIKHDALSIYHILPETVRKQELRASTLPLYAWINTCKISPEEVYNNLKRRGYNKVKSVLHIDDKVFAVDQHCYDVLIFPSHLKNDLINIDLFKDYKLIFQVN” here?
**A.** not soluble

**Q.** Which “soluble on expression in E. coli” value does the source give for “MSVAGLKKQFHKASQLFSEKISGAEGTKLDEEFLNMEKKIDITSKAVAEILSKATEYLQPNPAYRAKLGMLNTVSKLRGQVKATGYPQTEGLLGDCMLKYGKELGEDSAFGNSLVDVGEALKLMAEVKDSLDINVKQTFIDPLQLLQDKDLKEIGHHLRKLEGRRLDYDYKKRRVGKIPEEEIRQAVEKFEESKELAERSMFNFLENDVEQVSQLAVFVEAALDYHRQSTEILQELQSKLELRISLASKVPKREFMPKPVNMSSTDANGVGPSSSSKTPGTDTPSDQPCCRGLYDFEPENEGELGFKEGDIITLTNQIDENWYEGMLRGESGFFPINYVEVIVPLPP” here?
**A.** soluble

**Q.** Which “soluble on expression in E. coli” value does the source give for “MGSDKIHHHHHHMNIKHLDVLRTLLATGSTIAAAKAMGLSQSGVSRMLQQLESDLAITLFARDKGRLIPTPEATVLGRDAQNVLLAIERMSGHAEDLRNGSAGPEIVRIGLPSSMWENFAPAMLIDYVRDFPGVRIETFFETTTAITKLVEERVIDLGFLRIEGETGPGIAIDKVASGESVCVVPKDHSLAELPEITVKHLRNVPLILIGRQRPNRMALDQAFQRAGVKQMVKIETHTNSSACSYVAHGLGVSIISSFYANLYRHLPVVYRPFVPRATQEFGLVRAAGVPLSIAAQALSDALKKQIRLSQEEQ” here?
**A.** not soluble

**Q.** Which “soluble on expression in E. coli” value does the source give for “MHTILILGAGPAGAAVALGLRRLGYPVTLVSDWRRFPALEGVSLRVLEALRGAGLEQALAQALQPSQRRVAWNGAEHAQNIEYLLDRPAFDRGLREALREAQVKLIEGRVLGVQSSEAGHRVQVQGQGEVRGEFLVEARGRQAPVLDKALRQGGGKGLRGPETVSLLNRWQGPGGSATSAVHSLEDGWAWMARREDGQCYWQLTLDVESAGLPGKAQLLEYCRQRRLGSAMAREFFAGGQEQQLHLHARSSTAILNPQACGANWLRVGDAAMAVDPLSGNGIFQSLSSALQAPAVINTLLQQPQRAALAQRFHGQRVEQLFLRFARIGRDFYADEQRWPEQPFWQARRQWPDCQPAHIAVDFSALRIERAPVLRDGLVDEAEVVITPDQPLGIWHVQGVELAPLLRRLRSQGAAQALAQLSPDQNRLIRSWLLAQGYRPLEHHHHHH” here?
**A.** not soluble

**Q.** With “MALGGGTFVTQNKILPGSYINFISAKRATSSLSDRGIVAIPLELDWGIDEDVFQVTSDDFEKYSVKYFGYDYTHEKLKGLRDLFKNIRLGYFYKLNKGVKASCTIATAKYSGIRGNDLKVTVTTNIDDNAKFDVVTLLDNKKVDTQIAKVITDLQDNDYITWKKDATLEASAGLVFTGGTNGEAVTGAEYQAFLDKIESYSFNALGCLATTTEIKSLFVEFTKRMRDKVGAKFQTVLYKKSDADYEGVVSVENKIKEIGLVESSLIYWAAGAIAGCDINKSNTNKKYDGEFDVDVNYTQIQLEEALKTGKFIFHKVGDEVHVLEDINTFVSFTDDKNDDFSSNQSVRVLDQIANDIATLFNEKYLGKVPNDKAGRISFWNDVVKHHKELENIRAIEDFKTDDVSVELGNDKKTVIVSDAVKVINAMSKLYMTVSVNLEHHHHHH” as the sequence, how does the “soluble on expression in E. coli” value read?
**A.** soluble

**Q.** For “MGSDKIHHHHHHMERKTVLVIADLGGCPPHMFYKSAAEKYNLVSFIPRPFAITASHAALIEKYSVAVIKDKDYFKSLADFEHPDSIYWAHEDHNKPEEEVVEQIVKVAEMFGADAITTNNELFIAPMAKACERLGLRGAGVQAAENARDKNKMRDAFNKAGVKSIKNKRVTTLEDFRAALEEIGTPLILKPTYLASSIGVTLITDTETAEDEFNRVNDYLKSINVPKAVTFEAPFIAEEFLQGEYGDWYQTEGYSDYISIEGIMADGEYFPIAIHDKTPQIGFTETSHITPSILDEEAKKKIVEAAKKANEGLGLQNCATHTEIKLMKNREPGLIESAARFAGWNMIPNIKKVFGLDMAQLLLDVLCFGKDADLPDGLLDQEPYYVADCHLYPQHFKQNGQIPETAEDLVIEAIDIPDGLLKGDTEIVSFSAATPGTSVDLTLFEAFNSIAAFELKGSNSQDVAESIRQIQQHAKLTAKYVLPV”, which “soluble on expression in E. coli” value is on record?
**A.** not soluble

**Q.** Which “soluble on expression in E. coli” value does the source give for “MAKKVAIYTRVSTTNQAEEGFSIDEQIDRLTKYAEAMGWQVSDTYTDAGFSGAKLERPAMQRLINDIENKAFDTVLVYKLDRLSRSVRDTLYLVKDVFTKNKIDFISLNESIDTSSAMGSLFLTILSAINEFERELEY” here?
**A.** soluble

**Q.** With “MENNLAEFERRAEKNLLIMCKEKEKLQKKAHELKRRLLLSQRKRELADVLDAQIEMLSPFEAVATRFKEQYRTFATALDTTRHELPVRSIHLEGDGQQLLDALQHELVTTQRLLGELDVGDSEENVQVLDLLSELKDVTAKKDLELRRSFAQVLELSAEASKEAALANQEVWEETQGMAPPSRWYFNQDSACRESGGAPKNTPLSEDDNPGASSAPAQATFISPSEDFSSSSQAEVPPSLSRSGRDLS” as the sequence, how does the “soluble on expression in E. coli” value read?
**A.** soluble

**Q.** For “MGLLALGTPLQWFESRTYNEHIRDEGIEQLLYIFQAAGKRDNDPLFWGDELEYMVVDFDDKERNSMLDVCHDKILTELNMEDSSLCEANDVSFHPEYGRYMLEATPASPYLNYVGSYVEVNMQKRRAIAEYKLSEYARQDSKNNLHVGSRSVPLTLTVFPRMGCPDFINIKDPWNHKNAASRSLFLPDEVINRHVRFPNLTASIRTRRGEKVCMNVPMYKDIATPETDDSIYDRDWFLPEDKEAKLASKPGFIYMDSMGFGMGCSCLQVTFQAPNINKARYLYDALVNFAPIMLAFSAAAPAFKGWLADQDVRWNVISGAVDDRTPKERGVAPLLPKYNKNGFGGIAKDVQDKVLEIPKSRYSSVDLFLGGSKFFNRTYNDTNVPINEKVLGRLLENDKAPLDYDLAKHFAHLYIRDPVSTFEELLNQDNKTSSNHFENIQSTNWQTLRFKPPTQQATPDKKDSPGWRVEFRPFEVQLLDFENAAYSVLIYLIVDSILTFSDNINAYIHMSKVWENMKIAHHRDAILFEKFHWKKSFRNDTDVETEDYSISEIFHNPENGIFPQFVTPILCQKGFVTKDWKELKHSSKHERLYYYLKLISDRASGELPTTAKFFRNFVLQHPDYKHDSKISKSINYDLLSTCDRLTHLDDSKGELTSFLGAEIAEYVKKNKPSIESKCDKLAAALGHHHHHH”, which “soluble on expression in E. coli” value is on record?
**A.** soluble

**Q.** For “MKKKDRYTISELAREFEISTRTIRYYEEIGLLNPERTPGNQRIFSRKDRAKLKLILRGRRLGFSLEEIREMIEMYDVAGEPEQIRLTLKYGEKKLKEIEEKIRELELLKEDLLNLREMLVKRLEELEKGS”, which “soluble on expression in E. coli” value is on record?
**A.** not soluble

**Q.** For “MNVNKPTTEKKLIDLNNDIIHNFDVSIVMSFYKRYTEFRKVLPHNAPYLQRNGIEVIIVLDDPDEKSELLMLLQNYPFINWKLIINERKHAPRNHASVLNVGLKHATKKYILQIDPEVEFLTDIIWQMRDAIEKYPMHYILAMMAYVPYEQELTENNIKELDFIPWGNLMVERNHLYKLHGYDETFITWGGEDNNMRARLDMSGIKKFILPEAKTIHREKNYDPNERSKRINKHSISDWRKMNYPSEAIANKDIWGSEFNKVIYDWQDNQYAKDLCYTYLQQFIGFEIRHPAAFRKRHKKIVLCQAYNEEKLIEGFLTNMANYFDGIILLDDESTDRTWDLAIHDKIILKVKKKRSGFNDLENRNILLDLSAFFQSEWFCFMDIDERFDERFTNFSEFENNKEIHVVSFRGVYLWNDEQSYKGDIPNSNKGILTVYRMFRPIGHTHINTHKKLHFIATPYFTNTWQSNILFKDYGSMKENDRIRKYERYIQEDQQKDMSSGYDYLLNSENLYQLDKIEEYLEHHHHHH”, which “soluble on expression in E. coli” value is on record?
**A.** not soluble
